Measurements taken from CN116496388A (BRAVOVAX CO LTD; SHANGHAI BOWO BIOTECHNOLOGY CO LTD, dated 2023).

B1: AdC68-Hexon单克隆抗体 (hybridoma-derived, purified from mouse ascites) (antibody, V domains shown)
VH: EVQLVETGGGLVQPKGSLKLSCAVSGLPFNTKAMDWVRQAPGEGLEWVARIRTKSNNYATYYADSVKDRFTISRDDAQSMLYLQMTNLKTEDTAMYYCVRDEASWGHGTLVTVSA
VL: DIVMTQIPLSLPVSLGDQASISCRSSQSLVHSDGNTYLHWYLQKPGQSPKLLIYKVSNRFSGVPDRFSGSGSGTDFTLKISRVEAEDLGVYFCSQSTHFPWTFGGGTKLEIK
notes: Mouse IgG1 (all positive hybridomas were IgG1); also called 抗AdC68-Hexon单克隆抗体; 亲本鼠源抗体
B2: 重组抗AdC68-Hexon小鼠单克隆抗体 (antibody, V domains shown)
VH: EVQLVETGGGLVQPKGSLKLSCAVSGLPFNTKAMDWVRQAPGEGLEWVARIRTKSNNYATYYADSVKDRFTISRDDAQSMLYLQMTNLKTEDTAMYYCVRDEASWGHGTLVTVSA
VL: DIVMTQIPLSLPVSLGDQASISCRSSQSLVHSDGNTYLHWYLQKPGQSPKLLIYKVSNRFSGVPDRFSGSGSGTDFTLKISRVEAEDLGVYFCSQSTHFPWTFGGGTKLEIKR
notes: domain: 小鼠IgGκ轻链恒定区; Expressed in HEK293, assembled as IgG1k, Protein A purified; also called 重组单克隆抗体; 重组抗AdC68-Hexon鼠单克隆抗体; not shown: mouse IgG1 heavy chain constant region (IgG1CH, GenBank No. NC_000078.7, a genomic entry)

Assays:
野生型人5型腺病毒的Hexon蛋白 [1] = target: T1, 野生型人5型腺病毒的Hexon蛋白 (人5型腺病毒 (human adenovirus type 5), UniProt P04133 2-952); assay: Western blot, reduced virus lysate
T1 construct: also called 野生型人腺病毒5型

野生型人5型腺病毒的Hexon蛋白 [2] = target: T1, 野生型人5型腺病毒的Hexon蛋白; assay: cell immunostaining of virus-infected 293A cells

T1 sequence (P04133 2-952): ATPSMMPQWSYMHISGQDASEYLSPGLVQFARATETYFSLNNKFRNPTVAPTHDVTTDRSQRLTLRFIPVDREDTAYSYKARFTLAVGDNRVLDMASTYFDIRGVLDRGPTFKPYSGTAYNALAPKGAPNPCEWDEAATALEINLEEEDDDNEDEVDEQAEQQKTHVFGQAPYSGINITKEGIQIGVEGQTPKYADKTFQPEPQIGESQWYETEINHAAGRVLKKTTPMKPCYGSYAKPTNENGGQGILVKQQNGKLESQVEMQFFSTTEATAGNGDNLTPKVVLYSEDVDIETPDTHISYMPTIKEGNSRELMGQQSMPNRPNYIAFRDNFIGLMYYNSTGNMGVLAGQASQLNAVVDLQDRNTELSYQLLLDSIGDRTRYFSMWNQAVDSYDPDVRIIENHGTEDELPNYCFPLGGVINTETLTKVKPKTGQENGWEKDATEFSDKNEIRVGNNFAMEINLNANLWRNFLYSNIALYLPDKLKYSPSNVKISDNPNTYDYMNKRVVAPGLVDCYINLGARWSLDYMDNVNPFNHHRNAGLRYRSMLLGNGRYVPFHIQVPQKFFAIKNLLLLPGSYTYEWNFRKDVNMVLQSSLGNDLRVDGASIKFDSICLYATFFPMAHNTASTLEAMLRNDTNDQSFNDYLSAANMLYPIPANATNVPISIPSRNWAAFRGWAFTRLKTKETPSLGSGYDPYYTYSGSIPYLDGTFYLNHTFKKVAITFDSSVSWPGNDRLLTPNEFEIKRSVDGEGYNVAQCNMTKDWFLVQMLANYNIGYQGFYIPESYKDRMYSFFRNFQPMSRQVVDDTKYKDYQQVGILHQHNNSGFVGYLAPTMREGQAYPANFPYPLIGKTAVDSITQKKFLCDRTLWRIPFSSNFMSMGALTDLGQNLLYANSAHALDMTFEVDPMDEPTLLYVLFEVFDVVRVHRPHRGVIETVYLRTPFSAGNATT

Row | Binder | binding result (野生型人5型腺病毒的Hexon蛋白 [1]) | binding result (野生型人5型腺病毒的Hexon蛋白 [2])
1 | B1 | no binding (tested: antibody diluted 1:10000) | –
2 | B2 | – | no binding
